Results on one molecule are retold here after US20160257711A1 (BOARD OF TRUSTEES OF THE UNIVERSITY OF ILLINOIS, published 2016).

The assay addresses T1, integrin αIIbβ3 of human platelets (human, UniProt P08514 32-1039).
T1 construct: whole, on cells; Endogenous receptor; also called integrin β3; glycoprotein IIb-IIIa
In words: co-IP from platelet lysates and GST pull-downs.

B1: Gα13 (G protein α subunit), endogenous protein of human platelets (other)
chain: MADFLPSRSVLSVCFPGCLLTSGEAEQQRKSKEIDKCLSREKTYVKRLVKILLLGAGESGKSTFLKQMRIIHGQDFDQRAREEFRPTIYSNVIKGMRVLVDAREKLHIPWGDNSNQQHGDKMMSFDTRAPMAAQGMVETRVFLQYLPAIRALWADSGIQNAYDRRREFQLGESVKYFLDNLDKLGEPDYIPSQQDILLARRPTKGIHEYDFEIKNVPFKMVDVGGQRSERKRWFECFDSVTSILFLVSSSEFDQVLMEDRLTNRLTESLNIFETIVNNRVFSNVSIILFLNKTDLLEEKVQIVSIKDYFLEFEGDPHCLRDVQKFLVECFRNKRRDQQQKPLYHHFTTAINTENIRLVFRDVKDTILHDNLKQLMLQ
notes: Endogenous Gα13 in detergent lysates of washed human platelets, precipitated or detected with anti-Gα13 antibody; also called G protein subunit Gα13
B1: the binding result is listed as “binds”.
